The supplement of paper PMC10567573

B1: SLC2A12 (parent)
chain: TRIMIGLTLVFFVQITGQPNILFY
B2: PRKX (parent)
chain: KLLVVDRTRRLGNMKNGANDVKHH

Variants of: B1
Assay: protein stability index of a GFP-peptide fusion (GPS, HEK-293T) (PSI 1-6); higher = more stable
Details: c terminus: a fixed tail appended
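Also: lentivirally expressed fusions sorted by FACS into six bins by GFP to DsRed ratio, PSI derived from sequencing read proportions per bin multiplied by bin number.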

Variant	protein stability index
TRIMIGLTLVFFVQITGKPNILFY [Q18K]	3.22
TRIMIGLTLVFFVQITGPPNILFY [Q18P]	3.94
TRIMIGLTLVFFVQITGAPNILFY [Q18A]	3.12
TRIMIGLTLVFFVQITGDPNILFY [Q18D]	2.16
TRIMIGLTLVFFVQITGHPNILFY [Q18H]	3.08
TRIMIGLTLVFFVQITGRPNILFY [Q18R]	3.77
TRIMIGLTLVFFVQITGTPNILFY [Q18T]	2.7
TRIMIGLTLVFFVQITGWPNILFY [Q18W]	3.71
TRIMIGLTLVFFVQITGSPNILFY [Q18S]	3.39
TRIMIGLTLVFFVQITGMPNILFY [Q18M]	3.21
TRIMIGLTLVFFVQITGGPNILFY [Q18G]	3.24
TRIMIGLTLVFFVQITGNPNILFY [Q18N]	2.47
TRIMIGLTLVFFVQITGVPNILFY [Q18V]	4.47
TRIMIGLTLVFFVQITGEPNILFY [Q18E]	4.17
TRIMIGLTLVFFVQITGCPNILFY [Q18C]	2.86
TRIMIGLTLVFFVQITGYPNILFY [Q18Y]	3.56
TRIMIGLTLVFFVFITGQPNILFY [Q14F]	2.86
TRIMIGLTLVFFVNITGQPNILFY [Q14N]	3.37
TRIMIGLTLVFFVVITGQPNILFY [Q14V]	3.44
TRIMIGLTLVFFVKITGQPNILFY [Q14K]	3.25
TRIMIGLTLVFFVSITGQPNILFY [Q14S]	3.29
TRIMIGLTLVFFVHITGQPNILFY [Q14H]	2.02
TRIMIGLTLVFFVRITGQPNILFY [Q14R]	2.38
TRIMIGLTLVFFVLITGQPNILFY [Q14L]	3.19

Variant	protein stability index
TRIMIGLTLVFFVYITGQPNILFY [Q14Y]	3.3
TRIMIGLTLVFFVEITGQPNILFY [Q14E]	2.11
TRIMIGLTLVFFVDITGQPNILFY [Q14D]	2.14
TRIMIGLTLVFFVGITGQPNILFY [Q14G]	3.68
TRIMIGLTLVFFVTITGQPNILFY [Q14T]	3.67
TRIMIGLTLVFFVAITGQPNILFY [Q14A]	3.31
TRIMIGLTLVFFVIITGQPNILFY [Q14I]	2.88
TRIMIGLTLVFFVWITGQPNILFY [Q14W]	4.35
TRIMIGLTLVFFYQITGQPNILFY [V13Y]	3.14
TRIMIGLTLVFFWQITGQPNILFY [V13W]	2.85
TRIMIGLTLVFFTQITGQPNILFY [V13T]	3.18
TRIMIGLTLVFFVQGTGQPNILFY [I15G]	1.73
TRIMIGLTLVFFVQRTGQPNILFY [I15R]	2.93
TRIMIGLTLVFFVQYTGQPNILFY [I15Y]	3.97
TRIMIGLTLVFFVQFTGQPNILFY [I15F]	3.46
TRIMIGLTLVFFVQTTGQPNILFY [I15T]	3.01
TRIMIGLTLVFFVQATGQPNILFY [I15A]	1.54
TRIMIGLTLVFFVQLTGQPNILFY [I15L]	2.74
TRIMIGLTLVFFVQPTGQPNILFY [I15P]	3.74
TRIMIGLTLVFFVQMTGQPNILFY [I15M]	2.5
TRIMIGLTLVFFVQHTGQPNILFY [I15H]	2
TRIMIGLTLVFFVQQTGQPNILFY [I15Q]	3.39
TRIMIGLTLVFFVQSTGQPNILFY [I15S]	2.98
TRIMIGLTLVFFVQCTGQPNILFY [I15C]	3.47

Variant	protein stability index
TRIMIGLTLVFFVQITGQPNILFA [Y24A]	3.48
TRIMIGLTLVFFVQITGQPNILFM [Y24M]	4.11
TRIMIGLTLVFFVQITGQPNILFG [Y24G]	2.83
TRIMIGLTLVFFVQITGQPNILFS [Y24S]	2.89
TRIMIGLTLVFFVQITGQPNILFI [Y24I]	3.33
TRIMIGLTLVFFVQITGQPNILFW [Y24W]	2.69
TRIMIGLTLVFFVQITGQPNILFE [Y24E]	3.1
TRIMIGLTLVFFVQITGQPNILFV [Y24V]	4.22
TRIMIGLTLVFFVQITGQPNILFQ [Y24Q]	2.06
TRIMIGLTLVFFVQITGQPNILFR [Y24R]	3.44
TRIMIGLTLVFFVQITGQPNILFH [Y24H]	2.29
TRIMIGLTLVFFVQITGQPNILFT [Y24T]	3.56
TRIMIGLTLVFFVQITGQPNILFC [Y24C]	3.19
TRIMIGLTLVFFVQITGQPNILFN [Y24N]	2.88
TRIMIGLTLVFFVQITGQPNILFP [Y24P]	3.53
TRIMIGLTLVFFVQITGQPNILFF [Y24F]	5.58
TRIMIGLTLVFFVQITDQPNILFY [G17D]	3.49
TRIMIGLTLVFFVQITVQPNILFY [G17V]	2
TRIMIGLTLVFFVQITHQPNILFY [G17H]	2.87
TRIMIGLTLVFFVQITTQPNILFY [G17T]	2.58
TRIMIGLTLVFFVQITKQPNILFY [G17K]	2.58
TRIMIGLTLVFFVQITPQPNILFY [G17P]	3.68
TRIMIGLTLVFFVQITRQPNILFY [G17R]	3.35
TRIMIGLTLVFFVQITWQPNILFY [G17W]	2.11

Variant	protein stability index
TRIMIGLTLVFFVQITNQPNILFY [G17N]	3.03
TRIMIGLTLVFFVQITYQPNILFY [G17Y]	3.48
TRIMIGLTLVFFVQITQQPNILFY [G17Q]	2.8
TRIMIGLTLVFFVQITMQPNILFY [G17M]	3.31
TRIMIGLTLVFFVQITAQPNILFY [G17A]	2.96
TRIMIGLTLVFFVQITLQPNILFY [G17L]	2.86
TRIMIGLTLVFFVQITGQPAILFY [N20A]	3.57
TRIMIGLTLVFFVQITGQPHILFY [N20H]	3.83
TRIMIGLTLVFFVQITGQPMILFY [N20M]	3.84
TRIMIGLTLVFFVQITGQPVILFY [N20V]	2.81
TRIMIGLTLVFFVQITGQPPILFY [N20P]	3.22
TRIMIGLTLVFFVQITGQPQILFY [N20Q]	2.61
TRIMIGLTLVFFVQITGQPIILFY [N20I]	2.48
TRIMIGLTLVFFVQITGQPEILFY [N20E]	2.12
TRIMIGLTLVFFVQITGQPTILFY [N20T]	2.22
TRIMIGLTLVFFVQITGQPRILFY [N20R]	2.67
TRIMIGLTLVFFVQITGQPSILFY [N20S]	2.15
TRIMIGLTLVFFVQITGQPCILFY [N20C]	3.04
TRIMIGLTLVFFVQITGQPGILFY [N20G]	3.69
TRIMIGLTLVFFVQITGQPFILFY [N20F]	2.45
TRIMIGLTLVFFVQITGQPKILFY [N20K]	4.43
TRIMIGLTLVFFVQITGQPYILFY [N20Y]	2.54
TRIMIGLTLVFFVQITGQPNILGY [F23G]	3.83
TRIMIGLTLVFFVQITGQPNILCY [F23C]	2.54

Variant	protein stability index
TRIMIGLTLVFFVQITGQPNILIY [F23I]	3.73
TRIMIGLTLVFFVQITGQPNILHY [F23H]	2.96
TRIMIGLTLVFFVQITGQPNILLY [F23L]	3.52
TRIMIGLTLVFFVQITGQPNILKY [F23K]	3.29
TRIMIGLTLVFFVQITGQPNILVY [F23V]	2.56
TRIMIGLTLVFFVQITGQPNILMY [F23M]	2.94
TRIMIGLTLVFFVQITGQPNILAY [F23A]	3.26
TRIMIGLTLVFFVQITGQPNILDY [F23D]	2.29
TRIMIGLTLVFFVQITGQPNILYY [F23Y]	3.75
TRIMIGLTLVFFVQITGQPNILSY [F23S]	2.97
TRIMIGLTLVFFVQITGQPNILTY [F23T]	2.38
TRIMIGLTLVFFVQITGQPNILPY [F23P]	3.99
TRIMIGLTLVFFVQITGQPNILEY [F23E]	3.67
TRIMIGLTLVFFVQITGQPNIWFY [L22W]	2.65
TRIMIGLTLVFFVQITGQPNIIFY [L22I]	1.48
TRIMIGLTLVFFVQITGQPNIHFY [L22H]	2.65
TRIMIGLTLVFFVQITGQPNIQFY [L22Q]	1.83
TRIMIGLTLVFFVQITGQPNISFY [L22S]	3.01
TRIMIGLTLVFFVQITGQPNIFFY [L22F]	2.79
TRIMIGLTLVFFVQITGQPNIKFY [L22K]	1.94
TRIMIGLTLVFFVQITGQPNIDFY [L22D]	3.15
TRIMIGLTLVFFVQITGQPNIEFY [L22E]	3.11
TRIMIGLTLVFFVQITGQPNICFY [L22C]	3.96
TRIMIGLTLVFFVQITGQPNINFY [L22N]	3.01

Variant	protein stability index
TRIMIGLTLVFFVQITGQPNIMFY [L22M]	2.97
TRIMIGLTLVFFVQITGQPNTLFY [I21T]	3.91
TRIMIGLTLVFFVQITGQPNCLFY [I21C]	2.42
TRIMIGLTLVFFVQITGQPNVLFY [I21V]	2.5
TRIMIGLTLVFFVQITGQPNLLFY [I21L]	2.73
TRIMIGLTLVFFVQITGQPNRLFY [I21R]	2.73
TRIMIGLTLVFFVQITGQPNDLFY [I21D]	3.69
TRIMIGLTLVFFVQITGQPNSLFY [I21S]	4.17
TRIMIGLTLVFFVQITGQPNMLFY [I21M]	1.89
TRIMIGLTLVFFVQITGQPNALFY [I21A]	2.81
TRIMIGLTLVFFVQITGQPNFLFY [I21F]	3.31
TRIMIGLTLVFFVQITGQPNNLFY [I21N]	2.52
TRIMIGLTLVFFVQITGQPNWLFY [I21W]	3.64
TRIMIGLTLVFFVQITGQPNPLFY [I21P]	3.17
TRIMIGLTLVFFVQITGQPNYLFY [I21Y]	2.98
TRIMIGLTLVFFVQITGQPNELFY [I21E]	3.88
TRIMIGLTLVFFVQITGQPNQLFY [I21Q]	2.1
TRIMIGLTLVFFVQITGQPNGLFY [I21G]	4.22
TRIMIGLTLVFFVQITGQPNHLFY [I21H]	2.49
TRIMIGLTLVFFVQITGQGNILFY [P19G]	2.96
TRIMIGLTLVFFVQITGQINILFY [P19I]	3.15
TRIMIGLTLVFFVQITGQTNILFY [P19T]	3.21
TRIMIGLTLVFFVQITGQMNILFY [P19M]	2.83
TRIMIGLTLVFFVQITGQNNILFY [P19N]	1.72

Variant	protein stability index
TRIMIGLTLVFFVQITGQRNILFY [P19R]	3.63
TRIMIGLTLVFFVQITGQLNILFY [P19L]	3.42
TRIMIGLTLVFFVQITGQQNILFY [P19Q]	2.6
TRIMIGLTLVFFVQITGQFNILFY [P19F]	3.16
TRIMIGLTLVFFVQITGQYNILFY [P19Y]	2.23
TRIMIGLTLVFFVQITGQSNILFY [P19S]	2.39
TRIMIGLTLVFFVQITGQHNILFY [P19H]	3.72
TRIMIGLTLVFFVQITGQVNILFY [P19V]	3.9
TRIMIGLTLVFFVQISGQPNILFY [T16S]	3.65
TRIMIGLTLVFFVQIHGQPNILFY [T16H]	3.42
TRIMIGLTLVFFVQIAGQPNILFY [T16A]	2.63
TRIMIGLTLVFFVQIWGQPNILFY [T16W]	2.42
TRIMIGLTLVFFVQILGQPNILFY [T16L]	1.04
TRIMIGLTLVFFVQIYGQPNILFY [T16Y]	3.48
TRIMIGLTLVFFVQINGQPNILFY [T16N]	4.04
TRIMIGLTLVFFVQIPGQPNILFY [T16P]	3.4
TRIMIGLTLVFFVQIEGQPNILFY [T16E]	2.95
TRIMIGLTLVFFVQIQGQPNILFY [T16Q]	3.11
TRIMIGLTLVFFVQIIGQPNILFY [T16I]	4.14

Variants of: B2
Assay: as above
Details: c terminus: a fixed tail appended

Variant	protein stability index
KFLVVDRTRRLGNMKNGANDVKHH [L2F]	3.22
KELVVDRTRRLGNMKNGANDVKHH [L2E]	5.03
KGLVVDRTRRLGNMKNGANDVKHH [L2G]	4.1
KDLVVDRTRRLGNMKNGANDVKHH [L2D]	4.03
KCLVVDRTRRLGNMKNGANDVKHH [L2C]	3.57
KALVVDRTRRLGNMKNGANDVKHH [L2A]	3.84
ALLVVDRTRRLGNMKNGANDVKHH [K1A]	2.33
RLLVVDRTRRLGNMKNGANDVKHH [K1R]	2.52
GLLVVDRTRRLGNMKNGANDVKHH [K1G]	3.38
DLLVVDRTRRLGNMKNGANDVKHH [K1D]	3.82
ELLVVDRTRRLGNMKNGANDVKHH [K1E]	2.94
NLLVVDRTRRLGNMKNGANDVKHH [K1N]	3.45
TLLVVDRTRRLGNMKNGANDVKHH [K1T]	3.45
ILLVVDRTRRLGNMKNGANDVKHH [K1I]	1.78
QLLVVDRTRRLGNMKNGANDVKHH [K1Q]	3.37
LLLVVDRTRRLGNMKNGANDVKHH [K1L]	1.86
VLLVVDRTRRLGNMKNGANDVKHH [K1V]	1.82
FLLVVDRTRRLGNMKNGANDVKHH [K1F]	1.44
MLLVVDRTRRLGNMKNGANDVKHH [K1M]	1.85
CLLVVDRTRRLGNMKNGANDVKHH [K1C]	1.85
YLLVVDRTRRLGNMKNGANDVKHH [K1Y]	2.29
SLLVVDRTRRLGNMKNGANDVKHH [K1S]	3.51
HLLVVDRTRRLGNMKNGANDVKHH [K1H]	2.98
WLLVVDRTRRLGNMKNGANDVKHH [K1W]	1.55
PLLVVDRTRRLGNMKNGANDVKHH [K1P]	3.63
